# Measured values taken from patent US20250109178A1 (XYPHOS BIOSCIENCES, published 2025).
# Where a chain is given by its changes, count along the chain named. In names and notes the source's numbering stands.
# B1: rituximab-ULBP2.R80W MicAbody (bispecific antibody, human IgG1, kappa, N297A)
# heavy: QVQLQQPGAELVKPGASVKMSCKASGYTFTSYNMHWVKQTPGRGLEWIGAIYPGNGDTSYNQKFKGKATLTADKSSSTAYMQLSSLTSEDSAVYYCARSTYYGGDWYFNVWGAGTTVTVSAASTKGPSVFPLAPSSKSTSGGTAALGCLVKDYFPEPVTVSWNSGALTSGVHTFPAVLQSSGLYSLSSVVTVPSSSLGTQTYICNVNHKPSNTKVDKKVEPKSCDKTHTCPPCPAPELLGGPSVFLFPPKPKDTLMISRTPEVTCVVVAVSHEDPEVKFNWYVDGVEVHNAKTKPREEQYASTYRVVSVLTVLHQDWLNGKEYKCKVSNKALPAPIEKTISKAKGQPREPQVYTLPPSRDELTKNQVSLTCLVKGFYPSDIAVEWESNGQPENNYKTTPPVLDSDGSFFLYSKLTVDKSRWQQGNVFSCSVMHEALHNHYTQKSLSLSPGGGGSEPHSLSYDITVIPKFRPGPRWCAVQGQVDEKTFLHYDCGNKTVTPVSPLGKKLNVTTAWKAQNPVLREVVDILTEQLWDIQLENYTPKEPLTLQARMSCEQKAEGHSSGSWQFSFDGQIFLLFDSEKRMWTTVHPGARKMKEKWENDKVVAMSFHYFSMGDCIGWLEDFLMGMDSTLEPS
# light: QIVLSQSPAILSASPGEKVTMTCRASSSVSYIHWFQQKPGSSPKPWIYATSNLASGVPVRFSGSGSGTSYSLTISRVEAEDAATYYCQQWTSNPPTFGGGTKLEIKTVAAPSVFIFPPSDEQLKSGTASVVCLLNNFYPREAKVQWKVDNALQSGNSQESVTEQDSKDSTYSLSSTLTLSKADYEKHKVYACEVTHQGLSSPVTKSFNRGEC
# B2: ULBP2.S3 α1-α2 domain, monomeric His-tagged format (ligand)
# chain: EPHSLSYDITVIPKFRPGPRWCAVQGQVDEKTFLHYDCGNKTVTPVSPLGKKLNVTTAWKAQNPVLREVVDILTEQLWDIQLENYTPKEPLTLQARMSCEQKAEGHSSGSWQFSFDGQIFLLFDSEKRMWTTVHPGARKMKEKWENDKVVATKLYLWSMGDCIGWLEDFLMGMDSTLEPS
# notes: also called ULBP2.S3 (monomeric His-tagged); not shown: His tag
# B3: ULBP2.wt rituximab-MicAbody (bispecific antibody, human IgG1, kappa)
# heavy: not shown
# light: QIVLSQSPAILSASPGEKVTMTCRASSSVSYIHWFQQKPGSSPKPWIYATSNLASGVPVRFSGSGSGTSYSLTISRVEAEDAATYYCQQWTSNPPTFGGGTKLEIKRTVAAPSVFIFPPSDEQLKSGTASVVCLLNNFYPREAKVQWKVDNALQSGNSQESVTEQDSKDSTYSLSSTLTLSKADYEKHKVYACEVTHQGLSSPVTKSFNRGECAPTSSSGGGGSEPHSLSYDITVIPKFRPGPRWCAVQGQVDEKTFLHYDCGNKTVTPVSPLGKKLNVTTAWKAQNPVLREVVDILTEQLRDIQLENYTPKEPLTLQARMSCEQKAEGHSSGSWQFSFDGQIFLLFDSEKRMWTTVHPGARKMKEKWENDKVVAMSFHYFSMGDCIGWLEDFLMGMDSTLEPS
# notes: Rituximab IgG1 with wild-type ULBP2 α1-α2 domain fused to the light chain; bivalent for the α1-α2 domain; also called ULBP2 MicAbody; ULBP2 wild-type MicAbody
# B4: rituximab-ULBP2.S3 MicAbody (bispecific antibody, human IgG1, kappa)
# heavy: not shown
# light: B3 light with R302W, M376T, S377K, F378L, H379Y, Y380L, F381W
# notes: also called ULBP2.S3 as a MicAbody
# B5: rituximab-ULBP2.R MicAbody (bispecific antibody, human IgG1, kappa)
# heavy: not shown
# light: B3 light with R302W, M376T, S377L, F378L, H379W, Y380G, F381W
# notes: also called ULBP2.R rituximab-MicAbody; rituximab-MicAbody
# B6: rituximab-ULBP2.C MicAbody (bispecific antibody, human IgG1, kappa)
# heavy: not shown
# light: QIVLSQSPAILSASPGEKVTMTCRASSSVSYIHWFQQKPGSSPKPWIYATSNLASGVPVRFSGSGSGTSYSLTISRVEAEDAATYYCQQWTSNPPTFGGGTKLEIKTVAAPSVFIFPPSDEQLKSGTASVVCLLNNFYPREAKVQWKVDNALQSGNSQESVTEQDSKDSTYSLSSTLTLSKADYEKHKVYACEVTHQGLSSPVTKSFNRGECAPTSSSGGGGSEPHSLSYDITVIPKFRPGPRWCAVQGQVDEKTFLHYDCGNKTVTPVSPLGKKLNVTTAWKAQNPVLREVVDILTEQLWDIQLENYTPKEPLTLQARMSCEQKAEGHSSGSWQFSFDGQIFLLFDSEKRMWTTVHPGARKMKEKWENDKVVATILWQTSMGDCIGWLEDFLMGMDSTLEPS
# Key:
# [1] = target: T1, Fc-NKG2D.wt (natural human NKG2D ectodomain fused to the C-terminus of human IgG1 Fc) (human); experiment: ELISA, rituximab MicAbody on Fc-NKG2D (legend of FIGS. 16A and 16B)
# T1 construct: also called natural Fc-NKG2D; wild-type Fc-NKG2D
# Fc-NKG2D.Y152A [2] = target: T2, Fc-NKG2D.Y152A (human); experiment: ELISA and Octet
# T2 construct: also called NKG2D.YA; Fc-NKG2D.YA
# Fc-NKG2D.Y152A [3] = target: T2, Fc-NKG2D.Y152A; experiment: ELISA, Fc-eNKG2D coated, MicAbody titrated from 300 nM
# Experimental: (§1) The binding affinities of α1-α2 variants to the extracellular domains of natural (wild-type) NKG2D and non-natural eNKG2D proteins were analyzed using a plate-based ELISA method. […] The plates were washed three times in PBS/0.05% Tween-20 (PBS-T) at 20-22° C., and blocked with 0.5% bovine serum albumin in PBS (PBS-B) for 2 hours at 20-22° C.
# [4] = target: T1, Fc-NKG2D.wt (natural human NKG2D …); experiment: ELISA, Fc-NKG2D coated, MicAbody titrated from 300 nM (GraphPad Prism)
# Experimental: as §1
# [5] = target: T1, Fc-NKG2D.wt (natural human NKG2D …); experiment: ELISA, Fc-NKG2D coated, rituximab MicAbody titrated (FIGS. 16A and 16B)
# [6] = target: Fc-NKG2D.AF, eNKG2D5 (Y152A/Y199F) (human); experiment: as above
# Fc-NKG2D.Y152A [7] = target: T2, Fc-NKG2D.Y152A; experiment: as above
# [8] = target: T1, Fc-NKG2D.wt (natural human NKG2D …); experiment: titration ELISA, Fc-NKG2D coated, rituximab MicAbody titrated
# T2 sequence (chain, as listed by the source Y152A Y152A limits assumed): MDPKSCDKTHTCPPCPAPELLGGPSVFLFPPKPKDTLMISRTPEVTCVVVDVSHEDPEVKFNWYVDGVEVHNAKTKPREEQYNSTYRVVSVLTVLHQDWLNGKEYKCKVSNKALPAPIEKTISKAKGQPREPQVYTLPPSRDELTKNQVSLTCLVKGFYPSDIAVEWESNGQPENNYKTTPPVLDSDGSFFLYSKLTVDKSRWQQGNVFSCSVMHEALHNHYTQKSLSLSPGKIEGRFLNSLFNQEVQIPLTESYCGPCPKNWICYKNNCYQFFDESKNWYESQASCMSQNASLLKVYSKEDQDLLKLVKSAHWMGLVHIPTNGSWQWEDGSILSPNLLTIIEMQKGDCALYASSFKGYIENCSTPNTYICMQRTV
# T1 sequence (chain, as listed by the source limits assumed): as the sequence (chain, as listed by the source Y152A Y152A limits assumed) above, with A312Y counted along it
# Chain of Fc-NKG2D.AF, eNKG2D5 (Y152A/Y199F) (human) (chain, as listed by the source Y152A Y199F Y152A Y199F limits assumed): as the sequence (chain, as listed by the source Y152A Y152A limits assumed) above, with Y359F counted along it
binder,measurement,setting,value
B1,binding result,[1],binds
B2,binding result,Fc-NKG2D.Y152A [2],binds
B3,binding result,Fc-NKG2D.Y152A [3],binds
same,Kd,[4],1.4 nM
B4,binding result,[5],no binding
same,binding result,[6],no binding
B5,binding result,[5],no binding
same,binding result,Fc-NKG2D.Y152A [7],no binding
B6,binding result,[8],no binding
